Ends that are not written are not given here. * marks the point of attachment. Biotin = O=C1N[C@H]2[C@H](CS[C@H]2CCCCC(=O)*)N1
T1: His-tagged TamA (purified recombinant) (E. coli, UniProt P0ADE4 22-577)
T1 sequence (looked up): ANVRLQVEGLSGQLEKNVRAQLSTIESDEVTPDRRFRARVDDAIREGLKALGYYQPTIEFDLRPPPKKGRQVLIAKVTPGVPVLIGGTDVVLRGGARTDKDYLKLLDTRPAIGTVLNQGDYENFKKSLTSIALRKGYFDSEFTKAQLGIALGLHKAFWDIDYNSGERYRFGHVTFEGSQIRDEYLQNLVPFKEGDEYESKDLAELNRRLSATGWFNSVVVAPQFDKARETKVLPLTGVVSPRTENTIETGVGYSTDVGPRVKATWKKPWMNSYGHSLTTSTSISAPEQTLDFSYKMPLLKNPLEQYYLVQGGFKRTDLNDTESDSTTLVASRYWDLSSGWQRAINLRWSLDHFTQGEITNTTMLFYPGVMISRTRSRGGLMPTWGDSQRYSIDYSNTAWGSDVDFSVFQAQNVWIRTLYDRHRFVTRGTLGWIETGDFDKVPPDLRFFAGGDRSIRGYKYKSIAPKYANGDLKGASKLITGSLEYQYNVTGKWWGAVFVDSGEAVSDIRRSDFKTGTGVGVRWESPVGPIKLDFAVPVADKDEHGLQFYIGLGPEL

B1: His-tagged OmpF (natural protein, UniProt P02931 23-362, looked up)
chain: AEIYNKDGNKVDLYGKAVGLHYFSKGNGENSYGGNGDMTYARLGFKGETQINSDLTGYGQWEYNFQGNNSEGADAQTGNKTRLAFAGLKYADVGSFDYGRNYGVVYDALGYTDMLPEFGGDTAYSDDFFVGRVGGVATYRNSNFFGLVDGLNFAVQYLGKNERDTARRSNGDGVGGSISYEYEGFGIVGAYGAADRTNLQEAQPLGNGKKAEQWATGLKYDANNIYLAANYGETRNATPITNKFTNTSGFANKTQDVLLVAQYQFDFGLRPSIAYTKSKAKDVEGIGDVDLVNYFEVGATYYFNKNMSTYVDYIINQIDSDNKLGVGSDDTVAVGIVYQF

Tests used:
[1] = target: His-tagged BamA (purified recombinant) (E. coli, UniProt P0A940 21-810); assay: peptide or protein array
[2] = target: T1, His-tagged TamA (purified recombinant); assay: peptide or protein array
[3] = target: the molecule itself; assay: semi-native SDS-PAGE
[4] = target: T1, His-tagged TamA (purified recombinant); assay: cross-linking

Binder	binding result [1]	binding result [2]	other results
GGNSHYAYLNLQSGLNIGAA [FimD peptide 2 (β-strand 2)]	binds	–	–
GGYGNANIGYSHSDDIKQSA [FimD peptide 23 (β-strand 23)]	–	binds	–
INAGLLNYNFSGNSVQNRSA [FimD peptide 1 (β-strand 1)]	binds	–	–
FDGINFRGAQLASDDNMLSA [FimD peptide 6 (β-strand 6), on the array]	–	binds	–
B1	–	–	stoichiometry N [3]: 3
Biotin-FDGINFRGAQLASDDNMLK [Biotin-FDGINFRGAQLASDDNMLK (FimD peptide 6 with N-terminal biotin and C-terminal lysine)]	–	–	binding result [4]: binds

From publication PMC5607099 (Molecular microbiology, 2017)
